For 1 molecule, Kd results are on record in paper PMC8895158 (2022).

The target in this experiment is His-Src SH3 (UniProt P12931 84-145). The experiment is described as follows: SPR.

As to RKLPPRPSK [RLP1 peptide], binding was put at a Kd of 9.97 µM.
